“Also recorded” adds a separate entry of the source.
Test: Ratiometric fluorescence glucose titration of fluorescent conjugates
Type: binding
Parameters: key to Shape (fluorescence response to glucose) / Change (fluorescence response to glucose): m, monochromatic; d, dichromatic (i.e. spectral shape change); 0, no change
Details: for fluorescence response to glucose: monochromatic or dichromatic emission change
From the text: Semi-synthetic FRSs can be engineered by site-specifically attaching thiol-reactive, environmentally sensitive fluorophores that respond to ligand-mediated conformational changes. Identification of FRS candidates that can be used for sensing applications comprises three steps: • 1. Cysteine scan. Mutant glucose-binding proteins containing single cysteines are constructed for site-specific attachment of thiol-reactive fluorophores. […] Candidate positions fall into three classes: endosteric, replacing a residue that contacts the ligand directly; peristeric, located at the rim of the binding site; allosteric (Marvin et al., 1997, Proc Natl Acad Sci USA, 94, 4366-71; Marvin, 1998, J Am Chem Soc, 120, 7-11), located outside the binding site at sites that undergo local structural changes in concert with the hinge-bending motion. • 2. Fluorophore screening. Thiol-reactive, environmentally sensitive fluorophores are attached to each cysteine mutant prepared in step 1. • 3. Evaluation of the glucose-mediated change of all the fluorescent conjugates prepared in step 2. Responses to ligand binding in which there is both a change in fluorescence emission intensity and spectral shape are essential for chemometric applications, because such changes enable ratiometric measurements. Changes in spectral shape typically are accompanied by a shift in the wavelength of the emission intensity maxima. Three classes of fluorescent responses are possible: • i. No response. • ii. Monochromatic response (emission intensity increases or decreases without a change in spectral shape) • iii.
Determination of temperature- and ligand-dependent fluorescence landscapes. […] Temperatures were advanced in 1K steps.
Determination of emission intensity spectra.
2 For a single glucose-binding site, the fractional saturation is given by […]

[1] = tsGBP2 cysteine scan, Acrylodan conjugate

Molecule	fluorescence response to glucose (listed as 13C.Acrylodan conjugate)	fluorescence response to glucose (listed as Acrylodan conjugate attached to E13C)	Shape (fluorescence response to glucose) [1]	Shape (fluorescence response to glucose) (ttGBP1 homologs, 13C-equivalent mutants labeled with Acrylodan or Badan)	fluorescence response to glucose
E13C Acrylodan: tsGBP2_C13 (SEQ ID NO: 20) Acrylodan conjugate (conjugate, Acrylodan conjugate; tsGBP2_C13 (13C substitution mutant with signal peptide replaced with M and a GGSHHHHHH at C-terminus)) MKLEIFSWWAGDCGPALEALIRLYKQKYPGVEVINATVTGGAGVNAKAVLKTRMLGGDPPDTFQVHAGQELIGTWVVADRMEDLTSLFRQEGWLQAFPKGLIDLLSYKGGIWSVPVNIHRSNVMWYIPAKLKEWGVTPPKTWAEFLATAQTLKRKGLEAPLALGENWTQQHLWESVALATLGADGWNNLWSGKLKFTDPKAVAVWETFGKVLDAANKDAAGLSWQQAVDRVVQGKAAFNIMGDWAAGYMSTTLKLKPGTDFAWTPSPGTSGIFMMLSDSFGLPKGAKNRQNAINWLKLVGSKEGQDTFNPLKGSIAARLDSDPAKYNAYGQSAMKDWKSNRIVGSLVHGAVAPESFMSQFGTVMEIFLQSRNPQAAANAAQAIANQVGLGRGGSHHHHHH	strong dichromatic response; also recorded: strongest dichromatic response	largest, wavelength-dependent changes in fluorescence emission intensities	d	d	
D12C Acrylodan: tsGBP2_C12 (SEQ ID NO: 19) Acrylodan conjugate (conjugate, Acrylodan conjugate; tsGBP2_C12 (12C substitution mutant with signal peptide replaced with M and a GGSHHHHHH at C-terminus)) MKLEIFSWWAGCEGPALEALIRLYKQKYPGVEVINATVTGGAGVNAKAVLKTRMLGGDPPDTFQVHAGQELIGTWVVADRMEDLTSLFRQEGWLQAFPKGLIDLLSYKGGIWSVPVNIHRSNVMWYIPAKLKEWGVTPPKTWAEFLATAQTLKRKGLEAPLALGENWTQQHLWESVALATLGADGWNNLWSGKLKFTDPKAVAVWETFGKVLDAANKDAAGLSWQQAVDRVVQGKAAFNIMGDWAAGYMSTTLKLKPGTDFAWTPSPGTSGIFMMLSDSFGLPKGAKNRQNAINWLKLVGSKEGQDTFNPLKGSIAARLDSDPAKYNAYGQSAMKDWKSNRIVGSLVHGAVAPESFMSQFGTVMEIFLQSRNPQAAANAAQAIANQVGLGRGGSHHHHHH			m		
W244C Acrylodan: tsGBP2_C244 (SEQ ID NO: 30) Acrylodan conjugate (conjugate, Acrylodan conjugate; tsGBP2_C244 (244C substitution mutant with signal peptide replaced with M and a GGSHHHHHH at C-terminus)) MKLEIFSWWAGDEGPALEALIRLYKQKYPGVEVINATVTGGAGVNAKAVLKTRMLGGDPPDTFQVHAGQELIGTWVVADRMEDLTSLFRQEGWLQAFPKGLIDLLSYKGGIWSVPVNIHRSNVMWYIPAKLKEWGVTPPKTWAEFLATAQTLKRKGLEAPLALGENWTQQHLWESVALATLGADGWNNLWSGKLKFTDPKAVAVWETFGKVLDAANKDAAGLSWQQAVDRVVQGKAAFNIMGDCAAGYMSTTLKLKPGTDFAWTPSPGTSGIFMMLSDSFGLPKGAKNRQNAINWLKLVGSKEGQDTFNPLKGSIAARLDSDPAKYNAYGQSAMKDWKSNRIVGSLVHGAVAPESFMSQFGTVMEIFLQSRNPQAAANAAQAIANQVGLGRGGSHHHHHH			m		strong monochromatic response

— patent US11402384B2 (Duke University, priority 2015, dated 2022)
